Results: paper PMC7898959, “Identification of an amino-terminus determinant critical for ryanodine receptor/Ca^2+ release channel function” (Cardiovascular Research, 2020)
Changes are numbered by the printed parent chain. In names and notes the source's numbering stands.

B1: NT^(E173A + K174A) (RyR2 residues 1–906) (domain or fragment, human, UniProt Q92736 1-906, looked up)
chain: MADGGEGEDEIQFLRTDDEVVLQCTATIHKEQQKLCLAAEGFGNRLCFLESTSNSKNVPPDLSICTFVLEQSLSVRALQEMLANTVEKSEGQVDVEKWKFMMKTAQGGGHRTLLYGHAILLRHSYSGMYLCCLSTSRSSTDKLAFDVGLQEDTTGEACWWTIHPASKQRSEGAAVRVGDDLILVSVSSERYLHLSYGNGSLHVDAAFQQTLWSVAPISSGSEAAQGYLIGGDVLRLLHGHMDECLTVPSGEHGEEQRRTVHYEGGAVSVHARSLWRLETLRVAWSGSHIRWGQPFRLRHVTTGKYLSLMEDKNLLLMDKEKADVKSTAFTFRSSKEKLDVGVRKEVDGMGTSEIKYGDSVCYIQHVDTGLWLTYQSVDVKSVRMGSIQRKAIMHHEGHMDDGISLSRSQHEESRTARVIRSTVFLFNRFIRGLDALSKKAKASTVDLPIESVSLSLQDLIGYFHPPDEHLEHEDKQNRLRALKNRQNLFQEEGMINLVLECIDRLHVYSSAAHFADVAGREAGESWKSILNSLYELLAALIRGNRKNCAQFSGSLDWLISRLERLEASSGILEVLHCVLVESPEALNIIKEGHIKSIISLLDKHGRNHKVLDVLCSLCVCHGVAVRSNQHLICDNLLPGRDLLLQTRLVNHVSSMRPNIFLGVSEGSAQYKKWYYELMVDHTEPFVTAEATHLRVGWASTEGYSPYPGGGEEWGGNGVGDDLFSYGFDGLHLWSGCIARTVSSPNQHLLRTDDVISCCLDLSAPSISFRINGQPVQGMFENFNIDGLFFPVVSFSAGIKVRFLLGGRHGEFKFLPPPGYAPCYEAVLPKEKLKVEHSREYKQERTYTRDLLGPTVSLTQAAFTPIPVDTSQIVLPPHLERIREKLAENIHELWVMNKIELGWQYGP
notes: cardiac ryanodine receptor (RyR2), N-terminus, residues 1-906, double alanine substitution E173 + K174; negative control mutant; source: HEK293, transiently transfected, in cell homogenate; not shown: cMyc, N-terminal, kept
B2: NT^(K167A + Q168A) (RyR2 residues 1–906) (domain or fragment, human, UniProt Q92736 1-906, looked up)
chain: B1 chain with K167A, Q168A, A173E, A174K
notes: cardiac ryanodine receptor (RyR2), N-terminus, residues 1-906, double alanine substitution K167 + Q168; source: HEK293, transiently transfected, in cell homogenate; not shown: cMyc, N-terminal, kept
B3: NT^(D179A + D180A) (RyR2 residues 1–906) (domain or fragment, human, UniProt Q92736 1-906, looked up)
chain: B1 chain with A173E, A174K, D179A, D180A
notes: cardiac ryanodine receptor (RyR2), N-terminus, residues 1-906, double alanine substitution D179 + D180; also called D179A + D180A mutant; source: HEK293, transiently transfected, in cell homogenate; not shown: cMyc, N-terminal, kept
B4: wild-type RyR2 N-terminus (NT, residues 1–906) tagged with the cMyc epitope (domain or fragment, human, UniProt Q92736 1-906, looked up)
chain: B1 chain with A173E, A174K
notes: cardiac ryanodine receptor (RyR2), N-terminus, residues 1-906; species is stated for the full-length RyR2 cDNA (human), not for NT itself; also called NT^WT; source: HEK293, transiently transfected, in cell homogenate (cross-linking) or CHAPS-solubilized lysate (co-IP); not shown: cMyc, N-terminal, kept
B5: NT^R176Q (RyR2 residues 1–906 with the arrhythmia-linked R176Q mutation) (domain or fragment, human, UniProt Q92736 1-906, looked up)
chain: B1 chain with A173E, A174K, R176Q
notes: cardiac ryanodine receptor (RyR2), N-terminus, residues 1-906, with the disease-linked (ARVD2, CPVT) mutation R176Q; source: HEK293, transiently transfected, in cell homogenate (cross-linking) or CHAPS-solubilized lysate (co-IP); not shown: cMyc, N-terminal, kept
B6: NT^Δβ8–β9 (RyR2 residues 1–906, residues 167–178 removed) (domain or fragment, human, UniProt Q92736 1-906, looked up)
chain: MADGGEGEDEIQFLRTDDEVVLQCTATIHKEQQKLCLAAEGFGNRLCFLESTSNSKNVPPDLSICTFVLEQSLSVRALQEMLANTVEKSEGQVDVEKWKFMMKTAQGGGHRTLLYGHAILLRHSYSGMYLCCLSTSRSSTDKLAFDVGLQEDTTGEACWWTIHPASDDLILVSVSSERYLHLSYGNGSLHVDAAFQQTLWSVAPISSGSEAAQGYLIGGDVLRLLHGHMDECLTVPSGEHGEEQRRTVHYEGGAVSVHARSLWRLETLRVAWSGSHIRWGQPFRLRHVTTGKYLSLMEDKNLLLMDKEKADVKSTAFTFRSSKEKLDVGVRKEVDGMGTSEIKYGDSVCYIQHVDTGLWLTYQSVDVKSVRMGSIQRKAIMHHEGHMDDGISLSRSQHEESRTARVIRSTVFLFNRFIRGLDALSKKAKASTVDLPIESVSLSLQDLIGYFHPPDEHLEHEDKQNRLRALKNRQNLFQEEGMINLVLECIDRLHVYSSAAHFADVAGREAGESWKSILNSLYELLAALIRGNRKNCAQFSGSLDWLISRLERLEASSGILEVLHCVLVESPEALNIIKEGHIKSIISLLDKHGRNHKVLDVLCSLCVCHGVAVRSNQHLICDNLLPGRDLLLQTRLVNHVSSMRPNIFLGVSEGSAQYKKWYYELMVDHTEPFVTAEATHLRVGWASTEGYSPYPGGGEEWGGNGVGDDLFSYGFDGLHLWSGCIARTVSSPNQHLLRTDDVISCCLDLSAPSISFRINGQPVQGMFENFNIDGLFFPVVSFSAGIKVRFLLGGRHGEFKFLPPPGYAPCYEAVLPKEKLKVEHSREYKQERTYTRDLLGPTVSLTQAAFTPIPVDTSQIVLPPHLERIREKLAENIHELWVMNKIELGWQYGP
notes: also called β8–β9 loop deletion; source: HEK293, transiently transfected, in cell homogenate (cross-linking) or CHAPS-solubilized lysate (co-IP); not shown: cMyc, N-terminal, kept
B7: NT^Δβ23–β24 (RyR2 residues 1–906, residues 399–401 removed) (domain or fragment, human, UniProt Q92736 1-906, looked up)
chain: MADGGEGEDEIQFLRTDDEVVLQCTATIHKEQQKLCLAAEGFGNRLCFLESTSNSKNVPPDLSICTFVLEQSLSVRALQEMLANTVEKSEGQVDVEKWKFMMKTAQGGGHRTLLYGHAILLRHSYSGMYLCCLSTSRSSTDKLAFDVGLQEDTTGEACWWTIHPASKQRSEGEKVRVGDDLILVSVSSERYLHLSYGNGSLHVDAAFQQTLWSVAPISSGSEAAQGYLIGGDVLRLLHGHMDECLTVPSGEHGEEQRRTVHYEGGAVSVHARSLWRLETLRVAWSGSHIRWGQPFRLRHVTTGKYLSLMEDKNLLLMDKEKADVKSTAFTFRSSKEKLDVGVRKEVDGMGTSEIKYGDSVCYIQHVDTGLWLTYQSVDVKSVRMGSIQRKAIMHHEGHGISLSRSQHEESRTARVIRSTVFLFNRFIRGLDALSKKAKASTVDLPIESVSLSLQDLIGYFHPPDEHLEHEDKQNRLRALKNRQNLFQEEGMINLVLECIDRLHVYSSAAHFADVAGREAGESWKSILNSLYELLAALIRGNRKNCAQFSGSLDWLISRLERLEASSGILEVLHCVLVESPEALNIIKEGHIKSIISLLDKHGRNHKVLDVLCSLCVCHGVAVRSNQHLICDNLLPGRDLLLQTRLVNHVSSMRPNIFLGVSEGSAQYKKWYYELMVDHTEPFVTAEATHLRVGWASTEGYSPYPGGGEEWGGNGVGDDLFSYGFDGLHLWSGCIARTVSSPNQHLLRTDDVISCCLDLSAPSISFRINGQPVQGMFENFNIDGLFFPVVSFSAGIKVRFLLGGRHGEFKFLPPPGYAPCYEAVLPKEKLKVEHSREYKQERTYTRDLLGPTVSLTQAAFTPIPVDTSQIVLPPHLERIREKLAENIHELWVMNKIELGWQYGP
notes: cardiac ryanodine receptor (RyR2), N-terminus, residues 1-906, with residues 399-401 removed; source: HEK293, transiently transfected, in cell homogenate; not shown: cMyc, N-terminal, kept

Target: the molecule itself
Experiment: cross-linking; HEK293 cell homogenate (20 μg) with glutaraldehyde (0.0025% or 260 μmol/L) for 0 min to 1 h under reducing (10 mM DTT) conditions; SDS-PAGE and blot with Ab^cMyc; tetramer formation T = ODT/(ODT + ODM) × 100 by densitometry

Stoichiometry N, 4:
B1
B2
B3
B4
B5
B6
B7
